Measured values from US20120282177A1 (published 2012).

B1: ROR1_A4 (Fab, V domains shown)
VH: EVKLVESGGGLVKPGGSLKLSCAASGFTFSNYGMSWVRQTPERRLEWVAAMNNNGASTYYPDTVKGRFTISRDNAKNTLYLQMSSLRSEDTALYFCVRHNNYVDYAMDYWGQGTSVTVSS
VL: DILLTQSPSSMYTSLGERVTITCKASQDINSYLSWFQQKPGKSPKTLIYRANKLVDGVPSRFSGSGSGQDYSLTISSLESEDMGIYYCLQYDEFPYTFGGGTKLEIKR
notes: The entries are called 'variable region' but as printed hold leader, V domain, constant domain and tag
B2: ROR1_A9 (Fab, V domains shown)
VH: EVQLVETGGDLVKPGGSLKLSCVASGFTFSSNAMSWVRQTPEKRLEWVAAINSKGGGTYYPDTVRGRFTISRDNAKNTLYLQVTSLRSEDTALYYCVSHGDNKYFYAMDYWGQGTSVTVSS
VL: NIVMTQSPSSMYASLGERVTITCKASQDINSYLSWFQQKPGKSPKTLIYRANRLVDGVPSRFSGSGSGQDYSLTISSLEYEDMGIYYCLQYDEFPYTFGGGTKLEIKR
notes: as for B1
B3: ROR1_A3 (Fab, V domains shown)
VH: DVMLVESGGGLVKPGGSLKLSCAASGFTFSSYAMSWVRQTPEKRLEWVAAININRGTTYYSDTVKGRFTISRDNAKNTLYLQLSSLRSEDTALYYCSRHRYSDYDYAMDYWGQGTSVTVSS
VL: DIQLTQSPSSMYASLGERVTIACKASQDINSYLSWFQQKPGKSPKTLIHRANRLVDGVPSRFSGSGSGQDYSLTISSLEYEDIGIYYCLQYDEFPYTFGGGTKLEIKR
notes: as for B1
B4: ROR1_A5 (Fab, V domains shown)
VH: EVKLVESGGGLVKPGGSLKLSCAASGFTFSNYDMSWVRQSPEKRLEWVAAINRKGHSTYYPDTVQGRFTISRDNAKNTLYLQMSSLRSEDTALYYCVRLDDNYYFFDYWGQGTTLTVSS
VL: DIKMTQSPSSMYASLGERVTITCKASQDINSYLSWFQQKPGKSPKTLIYRAKRLIDGVPSRFSGSGSGQDYSLTISSLEYEDMGIYYCLQYDEFPYTFGGGTKLEIKR
notes: as for B1
B5: ROR1_A7 (Fab, V domains shown)
VH: EVMLVESGGGLVKPGGSLKISCAASGFSFSSYAMSWVRQTPEKSLEWVAAININRGTPYYPDTVKGRFTISRDNAKNTLYLQMSSLRSEDTALYYCVRHRNSNNDYAMDYWGQGTSVTVSS
VL: DIVMTQSPSSMYTSLGERVTITCKASQDINSYLSWFQQKPGKSPKTLIYRANRLIDGVPSRFSGSGSGQDYSLTISSLEYEDMGIYYCLQYDEFPFTFGSGTKLEIKR
notes: as for B1
B6: ROR1_A6 (Fab, V domains shown)
VH: EVMLVESGGGLVKPGGSLKLSCAASGFTFSPYAMSWVRQTPEKRLEWVAAINSNRGTTYYPDTVKGRFTISRDNAKNTLYLQMSSLRSEDTAFYYCVRHRYNNYDYAMDYWGQGTSVTVSS
VL: DIVMSQSPSSMYASLGERVTITCKASQDINSYLSWFQQKPGKSPKTLTYRANRLVEGVPSRFSGSGSGQDYSLTISSLEYEDMGIYYCLQYDEFPYTFGGGTKLEIKR
notes: as for B1
B7: ROR1_A2 (Fab, V domains shown)
VH: EVQLLETGGGLVKPGGSLKLSCAASGFTFSTYAMSWVRQTPEKRLEWVAGINSNRGTTYYPDTVKGRFTISRDNAKNTLSLQMTSLRSEDTALYYCVRHRYTNYDYAMDYWGQGTSVTVSS
VL: DIKMTQSPSSMYASLGERVTITCKASQDINSYLSWFQQKPGKSPKTLIYRANRLVDGVPSRFSGSGSGQDYSLTISSLEYEDMGIYYCLQYDEFPYTFGGGTKLEIKR
notes: as for B1
B8: ROR1_A1 (Fab, V domains shown)
VH: EVKLVESGGGLVRPGGSLKLSCAVSGFTFSSYAMSWVRQTPEKRLEWVAAINFNRGTTYYSDTVKGRFTISRDNAKNTLYLQLSSLRSEDTAFYYCSRHRYSDYDYAMDYWGQGTSVTVSS
VL: DIVMSQSPSSMYASLGERVTITCKASQDINSYLNWFQQKPGKSPKTLIYRANRLVDGVPSRFSGSGSGHDYFLTIRSLEYEDMGIYYCLQYDEFPYTFGGGTKLEIKR
B9: ROR1_A13 (Fab, V domains shown)
VH: EVQLVETGGGLVKPGGSLKLSCAASGFTFSSYAMSWIRQTPEKRLEWVAGINSNRGTTYYPDTVKGRFTISRDNAKNTLYLQMNSLRSEDSALYYCVRHRYIDYDYAMDYWGQGTSVTVSS
VL: NIVMTQSPSSMYASLGERVTIICKSSQDINSYLSWFQQKPGKSPKTLIFRANRLVDGVPSRFSGSGSGQDYSLTISSLEYEDMGIYYCLQYDEFPYTFGGGTKLEVKR
notes: as for B1
B10: ROR1_A12 (Fab, V domains shown)
VH: EVQLVESGGGLVKPGGSLKLSCAASGFTFSSYAMSWVRQTPEKRLEWVAAINSNRGTTYYSDTVKGRFTISRDNAKNTLYLQMSSLRSEDTAFYYCTRHRYSDYDYAMDYWGQGTSVTVSS
VL: DIKMTQSPSSMYASLGERVTITCKASQDINSYLSWFQQKPGKSPMTLTHRANRLVDGVPSRFSGSGSGQDYSLTISSLENEDMGIYYCLQYDEFPYTFGGGTKLEIKR
notes: as for B1
B11: ROR1_A10 (Fab, V domains shown)
VH: EVQLVETGGGLVKPGGSLKLSCAASGFAFSSYAMSWVRQTPEKRLEWVAAINNRGGGTYYPDTVRGRFTISRDNAKNTLYLQMSSLRSADTALYYCVRHDNLNYDYAMDSWGQGTSVTVSS
VL: NIVMTQSPSSMYASLGERVTITCKASQDIYSYLSWFQQKPGKSPKTLIYRANRLVDGVPSRFSGSGSGQDYSLTISSLDYEDVGIYYCLQYDEFPYTFGSGTKLEIER
notes: as for B1
B12: ROR1_A14 (Fab, V domains shown)
VH: QVQLKQSGAELVKPGASVKISCKATGYTFSSYWIEWVKERPGHGLEWIGEILPGIGNTNYNEKFKGKATFTADLSSKTAYMQLSSLTSEDSAVYYCASGGYSTVYWYFDVWGAGTTVTVSS
VL: DVVMSQSPSSLAVSTGEKVTLSCKSSQSLLNSRTRKNYLAWYQQKPGQSPKLLIYWTSTRESGVPNRFTGSGSGTDFTLTISSVQAEDLAVYYCKQSYDLPWTFGGGTKLEIKR
notes: as for B1

What follows are binders tested against T1, Tyrosine-protein kinase transmembrane receptor ROR1 (Long Isoform), human, on the cell surface (human, UniProt Q01973 30-937) (assay: flow cytometry on A549 cells (FIG. 5a)).
T1 construct: Endogenous ROR1 on the human cell lines A549, HT29, H69 and HEK293 and on CLL cells from a patient; also called cell-surface human ROR1; full-length ROR1
T1 sequence (Q01973 30-937 limits assumed): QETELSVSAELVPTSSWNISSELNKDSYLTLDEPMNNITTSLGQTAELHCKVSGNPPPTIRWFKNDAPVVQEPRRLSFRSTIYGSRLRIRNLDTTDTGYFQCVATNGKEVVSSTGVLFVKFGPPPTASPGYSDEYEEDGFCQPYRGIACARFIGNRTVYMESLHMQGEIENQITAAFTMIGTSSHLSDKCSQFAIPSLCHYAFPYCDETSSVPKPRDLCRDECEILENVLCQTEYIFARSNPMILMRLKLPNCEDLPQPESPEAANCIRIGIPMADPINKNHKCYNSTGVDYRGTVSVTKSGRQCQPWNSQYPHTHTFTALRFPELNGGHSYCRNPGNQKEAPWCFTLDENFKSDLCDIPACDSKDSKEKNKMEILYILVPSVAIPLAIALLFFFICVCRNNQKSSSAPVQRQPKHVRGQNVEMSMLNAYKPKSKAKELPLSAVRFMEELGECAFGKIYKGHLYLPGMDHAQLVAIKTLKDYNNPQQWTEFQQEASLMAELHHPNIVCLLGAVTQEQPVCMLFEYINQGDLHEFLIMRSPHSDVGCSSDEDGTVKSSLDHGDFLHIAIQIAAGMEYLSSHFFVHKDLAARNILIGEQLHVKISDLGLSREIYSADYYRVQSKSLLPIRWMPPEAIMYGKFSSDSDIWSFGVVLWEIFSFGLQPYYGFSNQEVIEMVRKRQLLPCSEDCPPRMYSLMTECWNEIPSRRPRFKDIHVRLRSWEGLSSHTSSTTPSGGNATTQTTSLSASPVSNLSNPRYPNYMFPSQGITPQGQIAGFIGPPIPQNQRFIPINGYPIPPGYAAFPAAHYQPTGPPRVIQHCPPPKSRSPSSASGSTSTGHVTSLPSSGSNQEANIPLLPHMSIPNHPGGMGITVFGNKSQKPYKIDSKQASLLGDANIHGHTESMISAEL
Description: (§1) The specificity of antibodies against the ROR1 selected in Example 6 was tested by flow cytometry. To test the ability of the antibodies to bind to the cell surface ROR1 protein, the antibodies were incubated with the ROR1-expressing cells, A549, from human lung adenocarinoma. Cells were washed in FACS buffer (DPBS, 2% FBS), centrifuged and resuspended in 100 μl of the diluted primary ROR1 antibody (also diluted in FACS buffer). The antibody-A549 complex was incubated on ice for 60 min and then washed twice with FACS buffer as described above. The cell-antibody pellet was resuspended in 100 μl of the diluted secondary antibody (also diluted in FACS buffer) and incubated on ice for 60 min on ice. The pellet was washed as before and resuspended in 200 μl FACS buffer. The samples were loaded onto the BD FACScanto II flow sytometer and the data analyzed using the BD FACSdiva software. The binding of ROR1_A3, ROR1_A1, ROR1_A8 and ROR1_A14 to ROR1 expressed on A549, H69 (human small cell lung carcinoma) and HT29 (colon carcinoma) cells were also analysed using flow cytometry.

Binding result, binds:
B1, B2, B3, B4, B5, B6, B7

What follows are binders tested against T1, Tyrosine-protein kinase transmembrane … (assay: flow cytometry, legend of FIGS. 5a and 5b (members and cell lines per antibody named in paragraph 474)).
Description: as §1

Binding result, binds:
B8, B9, B10, B11, B12
